Results published in patent US9664676B2, “RNA sequences that induce fluorescence of small molecule fluorophores” (Cornell University, priority 2013, dated 2017).

Tests used:
[1] = taken from Song et al.; cited from earlier work
(CGG)60-Spinach2 foci = assay: Effects of drugs on CGG RNA foci in COS-7 cells expressing (CGG)60-Spinach2; format: cell-based
Description: Transfection of COS-7 Cells and Live Cell Imaging: COS-7 cells (ATCC-CRL-1651) were cultured and passaged in DMEM supplemented with 50 units of penicillin and 50 μg of streptomycin per milliliter. For imaging experiments, cells were grown on cells cultured on 24-well glass-bottom dishes and transfected with 0.6 μg of pCDNA-60CGG-Spinach or pCDNA-60CGG-Spinach2 using FuGeneHD (Roche) per the manufacturer's instructions in DMEM medium lacking penicillin and streptomycin. Cells were imaged in CO2-independent medium (Invitrogen) supplemented with L-glutamine. At 30 min-1 h before imaging, medium was supplemented with 25 mM HEPES, 5 mM MgSO4, 1 μg/ml Hoechst 33342 (when appropriate) and 20 μM DFHBI or vehicle. Live fluorescence images were acquired in a temperature-controlled chamber at 35-37° C. with a CoolSnap HQ2 CCD camera through a 60× oil objective (Plan Apo 1.4 numerical aperture (NA)) mounted on a Nikon TE2000 epifluorescence microscope and analyzed with the NIS-Elements software. Spinach was imaged with a filter cube typically used for fluorescein or EGFP, with a sputter-coated excitation filter 470/40 nm, dichroic mirror 495 nm (long-pass), and emission filter 525/50 (Chroma Technology). DsRed-Max and mCherry were imaged using a filter cube typically used for Texas Red, with a sputter coated excitation filter 560/40 nm and emission filter 630/75 nm (Chroma Technology). Background intensity was subtracted from all pixel intensity measurements. Image analyses were completed with NIS-Elements AR 3.2 (Nikon). Drug treatments were carried out as specified. Tautomycin was used at a final concentration of 5 μM in all cases. 1a was used at a final concentration 20 μM in all cases. DMSO was added to a final concentration of 0.1% for vehicle treatments.

[2] = In vitro fluorescence (brightness) of Spinach RNAs, mutants and flanked/fused constructs with DFHBI; format: biochemical; conditions: for Percent Brightness (at 42° C.): percent of signal remaining at 42 °C for a given mutant; for Relative Brightness (at 25° C.): relative to Spinach
Source text: Preparation and Analysis of Spinach and Spinach Mutants: RNAs were created by using the appropriate single-stranded DNA templates (Integrated DNA Technologies) and PCR amplification using primers that included a 5′ T7 promoter sequence to generate double-stranded DNA templates. PCR products were then purified with PCR purification columns (Qiagen) and used as templates for in vitro T7 transcription reactions (Epicentre) as described previously (Paige et al., “RNA mimics of green fluorescent protein,” Science 333: 642-646 (2011), which is hereby incorporated by reference in its entirety). RNA was purified using ammonium acetate precipitation, and quantified using both absorbance values and the Riboquant Assay kit (BD Biosciences). Photophysical characterization of Spinach2 was carried out as previously described (Paige et al., “RNA mimics of green fluorescent protein,” Science 333: 642-646 (2011), which is hereby incorporated by reference in its entirety).
Preparation and In Vitro Analysis of Flanked Spinach and Spinach2 Constructs: Spinach and Spinach2 constructs flanked on either side by 50 base pairs were generated by PCR. For Spinach, the following primers were used:
The 50-base-pair sequences were taken from the human β-actin 3′ untranslated region. Both forward primers encode the T7 RNA polymerase promoter for in vitro transcription. 5S-Spinach and 5S-Spinach2 were amplified by PCR from pAV-5S-Spinach and pAV-5S-Spinach2, respectively, using the following primers: […]
PCR products were used as templates for in vitro transcription by Ampliscribe T7 RNA polymerase as previously described (Paige et al., “RNA mimics of green fluorescent protein,” Science 333: 642-646 (2011), which is hereby incorporated by reference in its entirety). Fluorescence measurements were recorded for 0.1 μM RNA in the presence of 10 μM DFHBI in buffer composed of 20 mM HEPES pH 7.4, 100 mM KCl and […] as described above.
Next, systematic mutagenesis was carried out to identify thermostable Spinach mutants with improved folding. Because elevated G+C content can lead to stable misfolded structures (Kiliszek et al., “Crystal Structures of CGG RNA Repeats with Implications for Fragile X-Associated Tremor Attaxia Syndrome,” Nuc. Acids Res. 39:7308-7315 (2011); Sobczak et al., “RNA Structure of Trinucleotide Repeats Associated with Human Neurological Diseases,” Nuc. Acids Res. 31:5469-5482 (2003), each of which is hereby incorporated by reference in its entirety), it was reasoned that decreasing the overall G+C content could promote proper folding. Scanning mutagenesis was carried out, mutating every […] and cytosine to adenosine or uracil, respectively. In regions where G and C residues were predicted to form a base pair, both residues were mutated to A and U, to maintain the complementarity. Each of these 35 mutants was synthesized in vitro, and the fraction folded was measured at 25° C. and 42° C. Fluorescence signals that were equal to or greater than Spinach at 25° C. indicated equal or greater percent folded. A higher percentage signal at 42° C. indicated improved thermostability relative to Spinach.

[3] = Thermostability measurements of Spinach RNAs with DFHBI; format: physicochemical; conditions: fluorescence of RNA-DFHBI complex in vitro, 20-60 °C; ±s.e.m.
Description: Thermostability Measurements: Spinach or Spinach2 (1 μM) was incubated in 20 mM HEPES pH 7.4, 100 mM KCl, 1 mM MgCl2 and 10 μM DFHBI. Fluorescence values were recorded in 1° C. increments from 20° C. to 60° C., with a 5-min incubation at each temperature to allow for equilibration. Fluorescence measurements were performed using a PerkinElmer LS-55 fluorescence spectrometer using the following instrument parameters: excitation wavelength, 460 nm; emission wavelength, 501 nm; slit widths, 10 nm. Curves were fitted using the Boltzmann sigmoidal equation in GraphPad Prism 5 software. Values presented are mean and s.e.m. from three independent measurements.

[4] = Folding assay (fraction of RNA folded, DFHBI); format: physicochemical
Description: Folding Assay: The folding assay involves measurement of fluorescence under two conditions, one in which RNA is in excess relative to DFHBI, and one in which the DFHBI is in excess relative to RNA. As Spinach and DFHBI form a 1:1 stoichiometric complex, the maximum amount of complex that can be formed is determined by the limiting component. In the first condition, the fluorescence was determined by incubation of 0.1 μM DFHBI and 100-fold excess (10 μM) Spinach. This value was used to define the fluorescence of 0.1 μM Spinach-DFHBI complex. It was assumed that even if nearly all Spinach is misfolded or unfolded, there will be enough properly folded Spinach to stoichiometrically bind 0.1 μM DFHBI. This was confirmed by measuring fluorescence after doubling the RNA to 20 μM, which caused no increase in fluorescence. In the second condition, the fluorescence obtained using 10 μM DFHBI and 0.1 μM Spinach was measured. In theory, up to 0.1 μM Spinach-DFHBI can form if all the Spinach is folded. However, if a portion of Spinach is unfolded, the fluorescence will be proportionately less than the fluorescence of 0.1 μM Spinach-DFHBI. Thus, this approach can reveal the fraction of Spinach that is folded under diverse conditions.
Fluorescence was measured for each RNA under the following conditions: (i) 0.1 μM RNA and 10 μM DFHBI, and (ii) 0.1 μM DFHBI and 10 μM RNA. For each condition, the signal from DFHBI without RNA was subtracted from each signal. Fluorescence was measured in 20 mM HEPES pH 7.4, 100 mM KCl and 1 mM MgCl2 at the designated temperature. Fluorescence measurements were performed using a PerkinElmer LS-55 fluorescence spectrometer using the following instrument parameters: excitation wavelength, 460 nm; emission wavelength, 501 nm; slit widths, 10 nm. Signal from the first condition (limiting RNA) was divided by the signal from the second condition (limiting dye) to determine the fraction folded.

For `CC1=N/C(=C\c2cc(F)c(O)c(F)c2)C(=O)N1CC(F)(F)F` [DFHBI-1T], the Abs max [1] is given as 423 nm, the Brightness [1] is given as 0.12 and the Em max [1] is given as 495 nm. For the same molecule, the Ex max [1] was 426 nm, the Ext. coeff. [1] was 35,400 M^−1cm^−1 and the Quantum yield [1] was 0.00098.

For `C=C1[C@@H](O)[C@@H]2O[C@]3(CC[C@H](/C=C/[C@@H](C)[C@@H]4CC(C)=C[C@@]5(O[C@H](C[C@@](C)(O)C(=O)O)CC[C@H]5O)O4)O3)CC[C@H]2O[C@@H]1[C@@H](O)C[C@H](C)[C@H]1O[C@@]2(CCCCO2)CC[C@H]1C` [okadaic acid], the “disruption of existing foci” value ((CGG)60-Spinach2 foci; 1a: imaging every 5 min for 2 h, okadaic acid: over 4 h) was “No disruption of foci”.

For `CO[C@H]([C@H](O)CC(=O)[C@@H](C)[C@@H](O)CC[C@@H](C)[C@@H]1O[C@]2(CC[C@@H](C)[C@H](CC[C@H](C)C(C)=O)O2)CC[C@@H]1C)[C@H](OC(=O)C[C@@H](O)C1=C(C)C(=O)OC1=O)C(C)C` [tautomycin], the “time to disaggregation of existing foci” value ((CGG)60-Spinach2 foci; 5 μM) was 1 h, the “effect on formation of (CGG)60-Spinach2 foci” value ((CGG)60-Spinach2 foci; 20 μM 1a or 5 μM tautomycin) was “prevented formation of (CGG)60-Spinach2 foci” and the nuclei containing foci ((CGG)60-Spinach2 foci; 24 h treatment, 20 μM 1a or 5 μM tautomycin, ±s.e.m.) was 12±4.2%.

B1: Spinach: RNA aptamer binding DFHBI, SEQ ID NO: 1 (nucleic acid)
chain: GACGCAACUGAAUGAAAUGGUGAAGGACGGGUCCAGGUGUGGCUGCUUCGGCAGUGCAGCUUGUUGAGUAGAGUGUGAGCUCCGUAACUAGUCGCGUC
modifications: listed as RNA, chemistry not given here
With B1 the “fluorescence when fused to the CGG repeat-containing RNA” value [2] was “essentially nonfluorescent”, the “brightness of flanked RNA relative to the same aptamer alone” value ([2]; flanked by 50 nt of RNA on both 5′ and 3′ ends, 0.1 μM RNA) was 20% and the “Percent Brightness (at 42° C.)” value [2] was 19%. For the same molecule, the “Relative Brightness (at 25° C.)” value ([2]; 25 °C) was 1.0, the “melting temperature (Tm)” value [3] was 34±0.6 °C and the percentage folded ([4]; 25 °C, in the presence of the tRNA (tRNA^Lys3 scaffold)) was 50±3.9%. It also gave a percentage folded ([4]; 25 °C, no tRNA scaffold) of 32±4.2%, a percentage folded ([4]; 37 °C, in the presence of the tRNA (tRNA^Lys3 scaffold)) of 24±2.4% and a percentage folded ([4]; 37 °C, no tRNA scaffold) of 13±2.8%.

B2: Spinach1.2: Spinach mutant with perfect complementarity in stem 1 and stem loop 3, SEQ ID NO: 31 (nucleic acid)
chain: GACGCGACCGAATGAAATGGTGAAGGACGGGTCCAGCCGGCTGCTTCGGCAGCCGGCTTGTTGAGTAGAGTGTGAGCTCCGTAACTGGTCGCGTC
modifications: listed as DNA, chemistry not given here
In the case of B2, the “dimmer than Spinach” value ([2]; 1 μM RNA, 10 μM DFHBI, 25 °C) is reported as 16%, the “Percent Brightness (at 42° C.)” value [2] is reported as 41% and the “Relative Brightness (at 25° C.)” value ([2]; 25 °C) is reported as 0.8. For the same molecule, the “melting temperature (Tm)” value [3] was 38±0.3 °C, the percentage folded ([4]; 25 °C, no tRNA scaffold) was 27±2.1% and the percentage folded ([4]; 37 °C, no tRNA scaffold) was 16±2.3%.

B3: Spinach1.1: Spinach mutant with perfect complementarity in stem 1, SEQ ID NO: 30 (nucleic acid)
chain: GACGCGACCGAATGAAATGGTGAAGGACGGGTCCAGGTGTGGCTGCTTCGGCAGTGCAGCTTGTTGAGTAGAGTGTGAGCTCCGTAACTGGTCGCGTC
modifications: listed as DNA, chemistry not given here
For B3, the “brightness compared to Spinach” value ([2]; 1 μM RNA, 10 μM DFHBI, 25 °C) was “as bright as Spinach” and the “melting temperature (Tm)” value [3] was 35±0.5 °C.
